Test results: PMC8617193

Target: NFS1 as crystallised in the (NIAU2)2 complexes (human)
Test: crystal structure; (NIAU2)2 complexes with wild-type or mutant ISCU2, 16-18 mg/ml, sitting drop, 0.1 M MES pH 6.5, 22.5% PEG-400, 15 °C; space group P41212; 1.57-1.95 Å

stoichiometry N: 2
Substance: NFS1 as crystallised in the (NIAU2)2 complexes (enzyme)
